Data on one molecule can be found in patent US12104181 (University of Texas, dated 2024).

The assay concerns the target T1, TRIM7-3F (TRIM7 with C-terminal 3×FLAG epitope) (human, UniProt Q9C029 1-511).
T1 construct: also called WT TRIM7-3F; 3×Flag-tagged TRIM7
Put plainly: co-IP with anti-HA beads from co-transfected 293T cells, Western blot.

B1: HA-tagged MenV 2BC (other)
chain: PFTFKPRQRPVFQTQGAAVSSMAQTLLPNDLASKAMGSAFTALLDANEDAQKAMKIIKTLSSLSDAWENVKGTLNNPEFWKQLLSRCVQLIAGMTIAVMHPDPLTLLCLGVLTAAEITSQTSLCEEIAAKFKTIFTTPPPRFPVISLFQQQSPLKQVNDVFSLAKNLDWAVKTVEKVVDWFGTWVAQEEREQTLDQLLQRFPEHAKRISDLRNGMAAYVECKESFDFFEKLYNQAVKEKRTGIAAVCEKFRQKHDHATARCEPVVIVLRGDAGQGKSLSSQIIAQAVSKTIFGRQSVYSLPPDSDFFDGYENQFAAIMDDLGQNPDGSDFTTFCQMVSTTNLLPNMASLERKGTPFTSQLVVATTNLPEFRPVTIAHYPAVERRITFDYSVSAGPVCSKTEAGCKVLDVERAFRPTGDAPLPCFQNNCLFLEKAGLQFRDNRSKEILSLVDVIERAVTRIERKKKVLTAVQTLVAQ
notes: domain: 2BC
As for B1, the binding result is given as “no binding”.
